T1: Axl protein (human, UniProt P30530 26-451)
T1 construct: extracellular domain; also called human Axl; hAxl
T1 sequence (looked up): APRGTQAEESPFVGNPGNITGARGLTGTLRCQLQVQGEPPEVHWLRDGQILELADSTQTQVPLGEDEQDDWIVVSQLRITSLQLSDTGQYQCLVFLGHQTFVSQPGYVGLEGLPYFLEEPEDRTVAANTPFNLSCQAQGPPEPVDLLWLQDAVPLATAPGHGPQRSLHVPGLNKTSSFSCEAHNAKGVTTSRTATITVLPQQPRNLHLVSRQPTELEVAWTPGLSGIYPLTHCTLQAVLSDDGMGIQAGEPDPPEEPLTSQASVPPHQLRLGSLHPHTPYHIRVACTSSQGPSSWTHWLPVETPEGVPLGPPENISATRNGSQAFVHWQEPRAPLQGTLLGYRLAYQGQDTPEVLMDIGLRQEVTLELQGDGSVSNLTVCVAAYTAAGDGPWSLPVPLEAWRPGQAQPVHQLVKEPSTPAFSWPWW


Experiments:
Axl protein [1] = molecular target: T1, Axl protein; experiment: ELISA, 1:3 dilution, pH 6.0 over pH 7.4
Axl protein [2] = molecular target: T1, Axl protein; experiment: ELISA, 1:9 dilution, pH 6.0 over pH 7.4

Binder | Affinity ELISA CPE mutant ratio (1:3, pH 6.0/7.4) (Axl protein [1]) [ratio] | Affinity ELISA CPE mutant ratio (1:9, pH 6.0/7.4) (Axl protein [2]) [ratio]
HC-T030A (antibody, V domains shown) VH: EVQLVQSGAEVKKPGATVKISCKVSGYSFAGHTMNWIRQPPGKGLEWIGLIKPSNGGTSYNQKFKGRVTISADKSISTAYLQWSSLKASDTAMYYCAHGHYESYFAMDYWGQGTLVTVSS VL: DIQMTQSPSSLSASVGDRVTITCKASQDVSSAVAWYQQKPGQAPRLLIYWASTRHTGVPSRFSGSGSGTEFTLTISSLQPDDFATYYCQEHFSTPLTFGQGTKVEIK | 1.29 | 1.76
HC-S059T (antibody, V domains shown) VH: EVQLVQSGAEVKKPGATVKISCKVSGYSFTGHTMNWIRQPPGKGLEWIGLIKPSNGGTTYNQKFKGRVTISADKSISTAYLQWSSLKASDTAMYYCAHGHYESYFAMDYWGQGTLVTVSS VL: DIQMTQSPSSLSASVGDRVTITCKASQDVSSAVAWYQQKPGQAPRLLIYWASTRHTGVPSRFSGSGSGTEFTLTISSLQPDDFATYYCQEHFSTPLTFGQGTKVEIK | 1.02 | 1.93
HC-E102L (antibody, V domains shown) VH: EVQLVQSGAEVKKPGATVKISCKVSGYSFTGHTMNWIRQPPGKGLEWIGLIKPSNGGTSYNQKFKGRVTISADKSISTAYLQWSSLKASDTAMYYCAHGHYLSYFAMDYWGQGTLVTVSS VL: DIQMTQSPSSLSASVGDRVTITCKASQDVSSAVAWYQQKPGQAPRLLIYWASTRHTGVPSRFSGSGSGTEFTLTISSLQPDDFATYYCQEHFSTPLTFGQGTKVEIK | 3.27 | 2.7
HC-E102V (antibody, V domains shown) VH: EVQLVQSGAEVKKPGATVKISCKVSGYSFTGHTMNWIRQPPGKGLEWIGLIKPSNGGTSYNQKFKGRVTISADKSISTAYLQWSSLKASDTAMYYCAHGHYVSYFAMDYWGQGTLVTVSS VL: DIQMTQSPSSLSASVGDRVTITCKASQDVSSAVAWYQQKPGQAPRLLIYWASTRHTGVPSRFSGSGSGTEFTLTISSLQPDDFATYYCQEHFSTPLTFGQGTKVEIK | 1.93 | 2.51
HC-E102R (antibody, V domains shown) VH: EVQLVQSGAEVKKPGATVKISCKVSGYSFTGHTMNWIRQPPGKGLEWIGLIKPSNGGTSYNQKFKGRVTISADKSISTAYLQWSSLKASDTAMYYCAHGHYRSYFAMDYWGQGTLVTVSS VL: DIQMTQSPSSLSASVGDRVTITCKASQDVSSAVAWYQQKPGQAPRLLIYWASTRHTGVPSRFSGSGSGTEFTLTISSLQPDDFATYYCQEHFSTPLTFGQGTKVEIK | 3.7 | 3.42
HC-N035I (antibody, V domains shown) VH: EVQLVQSGAEVKKPGATVKISCKVSGYSFTGHTMIWIRQPPGKGLEWIGLIKPSNGGTSYNQKFKGRVTISADKSISTAYLQWSSLKASDTAMYYCAHGHYESYFAMDYWGQGTLVTVSS VL: DIQMTQSPSSLSASVGDRVTITCKASQDVSSAVAWYQQKPGQAPRLLIYWASTRHTGVPSRFSGSGSGTEFTLTISSLQPDDFATYYCQEHFSTPLTFGQGTKVEIK | 2.81 | 1.12
HC-H100W (antibody, V domains shown) VH: EVQLVQSGAEVKKPGATVKISCKVSGYSFTGHTMNWIRQPPGKGLEWIGLIKPSNGGTSYNQKFKGRVTISADKSISTAYLQWSSLKASDTAMYYCAHGWYESYFAMDYWGQGTLVTVSS VL: DIQMTQSPSSLSASVGDRVTITCKASQDVSSAVAWYQQKPGQAPRLLIYWASTRHTGVPSRFSGSGSGTEFTLTISSLQPDDFATYYCQEHFSTPLTFGQGTKVEIK | 4.94 | 5.91
HC-H100D (antibody, V domains shown) VH: EVQLVQSGAEVKKPGATVKISCKVSGYSFTGHTMNWIRQPPGKGLEWIGLIKPSNGGTSYNQKFKGRVTISADKSISTAYLQWSSLKASDTAMYYCAHGDYESYFAMDYWGQGTLVTVSS VL: DIQMTQSPSSLSASVGDRVTITCKASQDVSSAVAWYQQKPGQAPRLLIYWASTRHTGVPSRFSGSGSGTEFTLTISSLQPDDFATYYCQEHFSTPLTFGQGTKVEIK | 2.42 | 3.09
HC-S059I (antibody, V domains shown) VH: EVQLVQSGAEVKKPGATVKISCKVSGYSFTGHTMNWIRQPPGKGLEWIGLIKPSNGGTIYNQKFKGRVTISADKSISTAYLQWSSLKASDTAMYYCAHGHYESYFAMDYWGQGTLVTVSS VL: DIQMTQSPSSLSASVGDRVTITCKASQDVSSAVAWYQQKPGQAPRLLIYWASTRHTGVPSRFSGSGSGTEFTLTISSLQPDDFATYYCQEHFSTPLTFGQGTKVEIK | 30.5 | 2.06
HC-P053N (antibody, V domains shown) VH: EVQLVQSGAEVKKPGATVKISCKVSGYSFTGHTMNWIRQPPGKGLEWIGLIKNSNGGTSYNQKFKGRVTISADKSISTAYLQWSSLKASDTAMYYCAHGHYESYFAMDYWGQGTLVTVSS VL: DIQMTQSPSSLSASVGDRVTITCKASQDVSSAVAWYQQKPGQAPRLLIYWASTRHTGVPSRFSGSGSGTEFTLTISSLQPDDFATYYCQEHFSTPLTFGQGTKVEIK | 1.4 | 1.89
HC-S103D (antibody, V domains shown) VH: EVQLVQSGAEVKKPGATVKISCKVSGYSFTGHTMNWIRQPPGKGLEWIGLIKPSNGGTSYNQKFKGRVTISADKSISTAYLQWSSLKASDTAMYYCAHGHYEDYFAMDYWGQGTLVTVSS VL: DIQMTQSPSSLSASVGDRVTITCKASQDVSSAVAWYQQKPGQAPRLLIYWASTRHTGVPSRFSGSGSGTEFTLTISSLQPDDFATYYCQEHFSTPLTFGQGTKVEIK | 4.24 | 2.23
HC-S103N (antibody, V domains shown) VH: EVQLVQSGAEVKKPGATVKISCKVSGYSFTGHTMNWIRQPPGKGLEWIGLIKPSNGGTSYNQKFKGRVTISADKSISTAYLQWSSLKASDTAMYYCAHGHYENYFAMDYWGQGTLVTVSS VL: DIQMTQSPSSLSASVGDRVTITCKASQDVSSAVAWYQQKPGQAPRLLIYWASTRHTGVPSRFSGSGSGTEFTLTISSLQPDDFATYYCQEHFSTPLTFGQGTKVEIK | 1.07 | 3.18
HC-H100R (antibody, V domains shown) VH: EVQLVQSGAEVKKPGATVKISCKVSGYSFTGHTMNWIRQPPGKGLEWIGLIKPSNGGTSYNQKFKGRVTISADKSISTAYLQWSSLKASDTAMYYCAHGRYESYFAMDYWGQGTLVTVSS VL: DIQMTQSPSSLSASVGDRVTITCKASQDVSSAVAWYQQKPGQAPRLLIYWASTRHTGVPSRFSGSGSGTEFTLTISSLQPDDFATYYCQEHFSTPLTFGQGTKVEIK | 1.88 | 2.51

Further lines, results first:

Affinity ELISA CPE mutant ratio (1:3, pH 6.0/7.4) (Axl protein [1]) [ratio] | Affinity ELISA CPE mutant ratio (1:9, pH 6.0/7.4) (Axl protein [2]) [ratio] | Binder
1.78 | 1.81 | HC-S103M (antibody, V domains shown) VH: EVQLVQSGAEVKKPGATVKISCKVSGYSFTGHTMNWIRQPPGKGLEWIGLIKPSNGGTSYNQKFKGRVTISADKSISTAYLQWSSLKASDTAMYYCAHGHYEMYFAMDYWGQGTLVTVSS VL: DIQMTQSPSSLSASVGDRVTITCKASQDVSSAVAWYQQKPGQAPRLLIYWASTRHTGVPSRFSGSGSGTEFTLTISSLQPDDFATYYCQEHFSTPLTFGQGTKVEIK
2.77 | 3.62 | HC-H100E (antibody, V domains shown) VH: EVQLVQSGAEVKKPGATVKISCKVSGYSFTGHTMNWIRQPPGKGLEWIGLIKPSNGGTSYNQKFKGRVTISADKSISTAYLQWSSLKASDTAMYYCAHGEYESYFAMDYWGQGTLVTVSS VL: DIQMTQSPSSLSASVGDRVTITCKASQDVSSAVAWYQQKPGQAPRLLIYWASTRHTGVPSRFSGSGSGTEFTLTISSLQPDDFATYYCQEHFSTPLTFGQGTKVEIK
7.99 | 0.932 | HC-W110H (antibody, V domains shown) VH: EVQLVQSGAEVKKPGATVKISCKVSGYSFTGHTMNWIRQPPGKGLEWIGLIKPSNGGTSYNQKFKGRVTISADKSISTAYLQWSSLKASDTAMYYCAHGHYESYFAMDYHGQGTLVTVSS VL: DIQMTQSPSSLSASVGDRVTITCKASQDVSSAVAWYQQKPGQAPRLLIYWASTRHTGVPSRFSGSGSGTEFTLTISSLQPDDFATYYCQEHFSTPLTFGQGTKVEIK
2.61 | 1.99 | HC-E102Y (antibody, V domains shown) VH: EVQLVQSGAEVKKPGATVKISCKVSGYSFTGHTMNWIRQPPGKGLEWIGLIKPSNGGTSYNQKFKGRVTISADKSISTAYLQWSSLKASDTAMYYCAHGHYYSYFAMDYWGQGTLVTVSS VL: DIQMTQSPSSLSASVGDRVTITCKASQDVSSAVAWYQQKPGQAPRLLIYWASTRHTGVPSRFSGSGSGTEFTLTISSLQPDDFATYYCQEHFSTPLTFGQGTKVEIK
1.52 | 1.57 | HC-E102N (antibody, V domains shown) VH: EVQLVQSGAEVKKPGATVKISCKVSGYSFTGHTMNWIRQPPGKGLEWIGLIKPSNGGTSYNQKFKGRVTISADKSISTAYLQWSSLKASDTAMYYCAHGHYNSYFAMDYWGQGTLVTVSS VL: DIQMTQSPSSLSASVGDRVTITCKASQDVSSAVAWYQQKPGQAPRLLIYWASTRHTGVPSRFSGSGSGTEFTLTISSLQPDDFATYYCQEHFSTPLTFGQGTKVEIK

Reference: patent US20190177417A1 (BIOATLA, published 2019)
